In doi:10.1101/2023.12.15.571532 (bioRxiv, 2023):

Target: the molecule itself
Experiment: native gel or EMSA

B1: RelJ antitoxin, recombinant His-tagged (natural protein)
chain: MSISASEARQRLFPLIEQVNTDHQPVRITSRAGDAVLMSADDYDAWQETVYLLRSPENARRLMEAVARDKAGHSAFTKSVDELREMAGGEE
With B1 the “stoichiometry N” value was 4.

B2: RelB antitoxin, recombinant His-tagged (natural protein)
chain: MAVVPLGEVRNRLSEYVAEVELTHERITITRHGHPAAVLISADDLASIEETLEVLRTPGASEAIREGLADVAAGRFVSNDEIRNRYTAR
B2: binds.

B3: RelF antitoxin, recombinant His-tagged (natural protein)
chain: MRILPISTIKGKLNEFVDAVSSTQDQITITKNGAPAAVLVGADEWESLQETLYWLAQPGIRESIAEADADIASGRTYGEDEIRAEFGVPRRPH
With B3 the “stoichiometry N” value was 4.
